Patent publication US20210113690A1 (BERLIN CHEMIE, published 2021)

Assays:
Experiment in all cases: peptide microarray, 8mer on the chip, 1 µg/mL LY75_A1, anti-human IgG Alexa 647
[1] = biological target: T1, ELTYSNFH
T1 construct: LY75 8mer on the microarray
T1 peptide: ELTYSNFH
Protocol: (§1) The peptide microarray analysis was performed by LC Sciences, Houston Tex., in brief the method comprised the following steps: —Contiguous 8mer peptides of LY75 protein having […] spanning residues 216 to 1666 of the full length LY75 protein were synthesized and immobilized on a microarray chip. The chip comprised three panels such that the experiment was performed in triplicate. […] The binding assay was performed under the following conditions:—
(§2) The microarray comprising the contiguous peptides in triplicate was washed with 1 mL of binding buffer at 4° C. for 20 min. […] The array was again washed with 0.5 mL of washing buffer at 4° C. for 30 min then incubated with 25 ng/mL anti-human IgG Alexa 647 conjugate in binding buffer (pH 7.0) at 4° C. for 1 hr. The array was again washed with 0.5 mL of washing buffer at 4° C. for 30 min.

[2] = biological target: T2, SCYKVFHA
T2 construct: LY75 8mer on the microarray
T2 peptide: SCYKVFHA
Protocol: as §1, §2

[3] = biological target: T3, PWHRFPVT
T3 construct: LY75 8mer on the microarray
T3 peptide: PWHRFPVT
Protocol: as §1, §2

[4] = biological target: T4, VKYLNNLY
T4 construct: LY75 8mer on the microarray
T4 peptide: VKYLNNLY
Protocol: as §1, §2

[5] = biological target: T5, VSLCQKYS
T5 construct: LY75 8mer on the microarray
T5 peptide: VSLCQKYS
Protocol: as §1, §2

[6] = biological target: T6, LSCYKVFH
T6 construct: LY75 8mer on the microarray
T6 peptide: LSCYKVFH
Protocol: as §1, §2

[7] = biological target: T7, VYFHQHSI
T7 construct: LY75 8mer on the microarray
T7 peptide: VYFHQHSI
Protocol: as §1, §2

[8] = biological target: T8, YLNNLYKI
T8 construct: LY75 8mer on the microarray
T8 peptide: YLNNLYKI
Protocol: as §1, §2

[9] = biological target: T9, KKLSRLTY
T9 construct: LY75 8mer on the microarray
T9 peptide: KKLSRLTY
Protocol: as §1, §2

[10] = biological target: T10, YDDREFIY
T10 construct: LY75 8mer on the microarray; aa 769-776 counted from Region 3 (aa761-780)
T10 peptide: YDDREFIY
Protocol: as §1, §2

[11] = biological target: T11, YKGHCYKS
T11 construct: LY75 8mer on the microarray
T11 peptide: YKGHCYKS
Protocol: as §1, §2

[12] = biological target: T12, EVKDCRSF
T12 construct: LY75 8mer on the microarray
T12 peptide: EVKDCRSF
Protocol: as §1, §2

[13] = biological target: T13, RWIQYKGH
T13 construct: LY75 8mer on the microarray
T13 peptide: RWIQYKGH
Protocol: as §1, §2

[14] = biological target: T14, YSRYPWHR
T14 construct: LY75 8mer on the microarray
T14 peptide: YSRYPWHR
Protocol: as §1, §2

[15] = biological target: T15, WHRFPVTF
T15 construct: LY75 8mer on the microarray
T15 peptide: WHRFPVTF
Protocol: as §1, §2

[16] = biological target: T16, LNNLYKII
T16 construct: LY75 8mer on the microarray
T16 peptide: LNNLYKII
Protocol: as §1, §2

[17] = biological target: T17, FTSCSERH
T17 construct: LY75 8mer on the microarray
T17 peptide: FTSCSERH
Protocol: as §1, §2

[18] = biological target: T18, HFTYSRYP
T18 construct: LY75 8mer on the microarray
T18 peptide: HFTYSRYP
Protocol: as §1, §2

[19] = biological target: T19, DREFIYLR
T19 construct: LY75 8mer on the microarray; aa 771-778 counted from Region 3 (aa761-780)
T19 peptide: DREFIYLR
Protocol: as §1, §2

[20] = biological target: T20, RYPWHRFP
T20 construct: LY75 8mer on the microarray
T20 peptide: RYPWHRFP
Protocol: as §1, §2

[21] = biological target: T21, SERHFVSL
T21 construct: LY75 8mer on the microarray
T21 peptide: SERHFVSL
Protocol: as §1, §2

[22] = biological target: T22, EAVYFHQH
T22 construct: LY75 8mer on the microarray
T22 peptide: EAVYFHQH
Protocol: as §1, §2

[23] = biological target: T23, SRWIQYKG
T23 construct: LY75 8mer on the microarray
T23 peptide: SRWIQYKG
Protocol: as §1, §2

[24] = biological target: T24, EFIYLRPF
T24 construct: LY75 8mer on the microarray; aa 773-780 counted from Region 3 (aa761-780)
T24 peptide: EFIYLRPF
Protocol: as §1, §2

[25] = biological target: T25, SRYPWHRF
T25 construct: LY75 8mer on the microarray
T25 peptide: SRYPWHRF
Protocol: as §1, §2

[26] = biological target: T26, PWRRGWHF
T26 construct: LY75 8mer on the microarray
T26 peptide: PWRRGWHF
Protocol: as §1, §2

[27] = biological target: T27, TYSNFHPL
T27 construct: LY75 8mer on the microarray
T27 peptide: TYSNFHPL
Protocol: as §1, §2

Measured: binding result

B1: LY75_A1 monoclonal antibody (antibody, human IgG1, kappa, V domains shown)
VH: EVQLVESGGGLVKPGGSLRLSCAASGFTYSNAWMSWVRQAPGKGLEWVGRIKSKTDGGTTDYAAPVQGRFTISRDDSKNTLYLQMNSLKTEDTAVYYCTIFGVVSFDYWGQGTLVTVSS
VL: DVQMTQSPSSLSASVGDRVTITCRASQSISDYLSWYQQRPGKAPNLLIYAASNLKTGVPSRFSGSGSGTDFTLTISTLQPEDFATYYCQQSYRSPWTFGQGTKVEIKR
notes: also called LY75A1 antibody; antibody LY75_A1
binds: [1] | [2] | [3] | [4] | [5] | [6] | [7] | [8] | [9] | [10] | [11] | [12] | [13] | [14] | [15] | [16] | [17] | [18] | [19] | [20] | [21] | [22] | [23] | [24] | [25] | [26] | [27]
